Measured values taken from PMC10700650, “Enhancing the thermostability and activity of glycosyltransferase UGT76G1 via computational design” (Communications Chemistry, 2023).
Values belong to the molecule of their own block, whether it stands above or below them.

How the values were obtained:
[1] = target: 76_4 (designed UGT76G1 variant) (Stevia rebaudiana, UniProt Q6VAB4, L101F/S192K/R297W/V300K/S305P/G348P, form not given); conditions: 1 mM UDPG; 0-300 uM ST; ST to RebA conversion; 2 min time course
Sequence of 76_4 (designed UGT76G1 variant) (Q6VAB4 12-458 L101F/S192K/R297W/V300K/S305P/G348P, form open): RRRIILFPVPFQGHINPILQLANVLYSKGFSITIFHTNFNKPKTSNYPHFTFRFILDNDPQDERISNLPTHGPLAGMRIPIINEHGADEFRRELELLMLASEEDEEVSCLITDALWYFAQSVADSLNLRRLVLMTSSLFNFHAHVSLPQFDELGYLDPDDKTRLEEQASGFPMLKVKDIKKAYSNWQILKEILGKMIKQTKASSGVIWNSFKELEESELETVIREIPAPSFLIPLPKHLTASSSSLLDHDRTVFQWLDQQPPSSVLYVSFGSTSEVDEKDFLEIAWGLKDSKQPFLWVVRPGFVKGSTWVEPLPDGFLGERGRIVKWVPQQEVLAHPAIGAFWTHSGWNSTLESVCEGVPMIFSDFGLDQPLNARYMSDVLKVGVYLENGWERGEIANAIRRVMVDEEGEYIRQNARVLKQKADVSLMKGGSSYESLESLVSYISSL

purified protein = substrate: C=C1C[C@@]23CC[C@H]4[C@@](C)(CCC[C@@]4(C)C(=O)O[C@@H]4O[C@H](CO)[C@@H](O)[C@H](O)[C@H]4O)[C@@H]2CC[C@]1(O[C@@H]1O[C@H](CO)[C@@H](O)[C@H](O)[C@H]1O[C@@H]1O[C@H](CO)[C@@H](O)[C@H](O)[C@H]1O)C3; assay: purified protein; conditions: 1 mM UDPG; 0-300 uM ST; ST to RebA conversion; 2 min time course

Km [1]: 34.5 ± 3 µM
Molecule: C=C1C[C@@]23CC[C@H]4[C@@](C)(CCC[C@@]4(C)C(=O)O[C@@H]4O[C@H](CO)[C@@H](O)[C@H](O)[C@H]4O)[C@@H]2CC[C@]1(O[C@@H]1O[C@H](CO)[C@@H](O)[C@H](O)[C@H]1O[C@@H]1O[C@H](CO)[C@@H](O)[C@H](O)[C@H]1O)C3 [ST, stevioside]

B1: UGT76G1 (WT) (Stevia rebaudiana) (protein)
chain: MENKTETTVRRRRRIILFPVPFQGHINPILQLANVLYSKGFSITIFHTNFNKPKTSNYPHFTFRFILDNDPQDERISNLPTHGPLAGMRIPIINEHGADELRRELELLMLASEEDEEVSCLITDALWYFAQSVADSLNLRRLVLMTSSLFNFHAHVSLPQFDELGYLDPDDKTRLEEQASGFPMLKVKDIKSAYSNWQILKEILGKMIKQTKASSGVIWNSFKELEESELETVIREIPAPSFLIPLPKHLTASSSSLLDHDRTVFQWLDQQPPSSVLYVSFGSTSEVDEKDFLEIARGLVDSKQSFLWVVRPGFVKGSTWVEPLPDGFLGERGRIVKWVPQQEVLAHGAIGAFWTHSGWNSTLESVCEGVPMIFSDFGLDQPLNARYMSDVLKVGVYLENGWERGEIANAIRRVMVDEEGEYIRQNARVLKQKADVSLMKGGSSYESLESLVSYISSL
Km (purified protein): 92.0 ± 5.3 µM
kcat (purified protein): 0.288 ± 0.0267 s⁻¹
